Changes are numbered by the printed parent chain. Names may count otherwise. Marks after values point to notes of the source that are not given here.
B1: mutant III (Oenococcus oeni PSU-1; F133K) (protein)
chain: MNKLFLPKNFLWGGAVAANQLEGGWDQDNKGLSVADIMTAGANGKAREITDGIVKGKYYPNHEAIDFYHRYKEDIKLFAEMGFKCFRTSIAWTRIFPNGDEEQPNEAGLKFYDQLFDECHKYGIEPVITLSHKEMPYHLVKAYGGWRNRKLIDFFVRFAKTVFKRYKDKVSYWMTFNEIDNQTDYTNRFLMATNSGLILKNDQSDAESLMYQAAHYELVASALAVKLGHSINPNFQIGCMINMTPVYPASSKPADIFQAEKAMQRRYWFSDIHALGKYPENMEVFLKQNNFRPDITSEDRIVLKEGTVDYIGLSYYNSMTVQSKESNPGFHFIGPELTVDNPNVEKSDWGWPIDPLGLRYSLNWLADHYHKPLFIVENGLGAYDKVENSQQIHDPYRIAYLKAHIQAMIDAVQEDGVKVIGYTPWGCIDLVSAGTGQMSKRYGFIYVDKDDQGKGSLKRLKKDSFFWYQQVIQSNGSQLD
notes: purified recombinant, pMG36e plasmid, expressed in Lactococcus lactis MG1363
B2: mutant IV (Oenococcus oeni PSU-1; N181R) (protein)
chain: B1 chain with K133F, N181R
notes: as for B1
B3: wild-type enzyme (Oenococcus oeni PSU-1) (protein)
chain: B1 chain with K133F
notes: purified recombinant BGL0224 (MT330371.1), plasmid pMG36e-0224, expressed in Lactococcus lactis MG1363

substrate: O=[N+]([O-])c1ccc(O[C@H]2O[C@H](CO)[C@@H](O)[C@H](O)[C@H]2O)cc1; experiment: p-Nitrophenol release read at 420 nm after Na2CO3 stop, 0.1-25 mM substrate in 20 mM sodium phosphate buffer at each enzyme's optimum (wild type pH 5.0, 50 °C; mutant III pH 3.5, 50 °C; mutant IV pH 4.0, 45 °C), Hill function fit in Origin.; assay type: biochemical
Description: (§1) 3.9. Enzymatic Reaction Kinetics and Substrate Specificity
(§2) The determination of enzymatic reaction kinetics was conducted according to Zhang et al., with slight modifications. Different concentrations (0.1 mM, 0.2 mM, 0.5 mM, 1.0 mM, 2.0 mM, 5.0 mM, 8.0 mM, 10 mM, 12 mM, 15 mM, 20 mM and 25 mM) of p-NPG substrate solutions were prepared with 20 mM sodium phosphate buffer. Then, 100 μg of enzyme lyophilized powder were added to 500 μL of p-NPG solutions at different concentrations. Next, this was reacted for 0 min, 5 min, 10 min, 15 min, 20 min, 25 min and 30 min under optimal reaction conditions, and at the end of each set of reactions, 500 μL 1 M of Na2CO3 solution were added to terminate the reaction. The absorbance value of each reaction system was measured at 420 nm and the amount of p-NP corresponding to different reaction times at specific substrate concentrations was calculated from the standard curve. The kinetic constants (Vmax and Km) of each reaction system were determined by fitting using the Hill function in the class of Growth/Inverse Curve for nonlinear fitting in the Origin Pro 8.0 software.
(§3) All experiments were set up in three parallels. The activities of the wild-type enzyme and five mutants were analyzed by ANOVA at the significance level of p < 0.05 using the SPSS 26.0 software, and multiple comparisons of the means were performed using Duncan’s method. The kinetic parameters of the enzymatic reactions for the wild-type enzyme and mutants catalyzing four substrates were subjected to independent sample t-tests at a significance level of p < 0.05, and the data were expressed as mean ± standard deviation. The experimental results were plotted using the Origin 2021 software.

Protein	Km	Vmax	kcat	kcat/Km
B1	1.19 ± 0.23 ^b mM	25.8 ± 2.06 µM/min/mg	23.7 ± 1.89 s⁻¹	19900 M⁻¹ s⁻¹
B2	1.27 ± 0.19 ^c mM	19.9 ± 1.98 µM/min/mg	18.4 ± 1.82 s⁻¹	14400 M⁻¹ s⁻¹
B3	1.07 ± 0.20 ^a mM	29.6 ± 1.83 µM/min/mg	27.2 ± 1.68 s⁻¹	25400 M⁻¹ s⁻¹

substrate: O=[N+]([O-])c1ccc(O[C@@H]2OC[C@@H](O)[C@H](O)[C@H]2O)cc1; experiment: as above; assay type: biochemical
Description: as §1, §2, §3

Protein	Km	Vmax	kcat	kcat/Km
B1	1.24 ± 0.13 ^b mM	337 ± 4.61 µM/min/mg	310 ± 4.24 s⁻¹	250000 M⁻¹ s⁻¹
B2	1.17 ± 0.16 ^a mM	359 ± 3.88 µM/min/mg	330 ± 3.57 s⁻¹	282000 M⁻¹ s⁻¹
B3	1.31 ± 0.22 ^c mM	308 ± 3.64 µM/min/mg	283 ± 3.34 s⁻¹	216000 M⁻¹ s⁻¹

substrate: O=[N+]([O-])c1ccc(O[C@@H]2O[C@H](CO)[C@H](O)[C@H](O)[C@H]2O)cc1; experiment: as above; assay type: biochemical
Description: as §1, §2, §3

Protein	Km	Vmax	kcat	kcat/Km
B1	0.52 ± 0.17 ^a mM	349 ± 4.83 µM/min/mg	321 ± 4.44 s⁻¹	617000 M⁻¹ s⁻¹
B2	0.87 ± 0.24 ^c mM	257 ± 5.47 µM/min/mg	237 ± 5.03 s⁻¹	272000 M⁻¹ s⁻¹
B3	0.81 ± 0.16 ^b mM	231 ± 5.71 µM/min/mg	212 ± 5.25 s⁻¹	262000 M⁻¹ s⁻¹

substrate: O=[N+]([O-])c1ccc(O[C@@H]2O[C@H](CO)[C@@H](O)[C@H](O)[C@H]2O)cc1; experiment: as above; assay type: biochemical
Description: as §1, §2, §3

Protein	Km	Vmax	kcat	kcat/Km
B1	0.27 ± 0.05 ^b mM	533 ± 6.51 µM/min/mg	490 ± 5.98 s⁻¹	1.81e+06 M⁻¹ s⁻¹
B2	0.22 ± 0.03^a mM	841.6 ± 3.82 µM/min/mg	773.6 ± 3.52 s⁻¹	3.52e+06 M⁻¹ s⁻¹
B3	0.33 ± 0.03 ^c mM	363 ± 4.13 µM/min/mg	334 ± 3.8 s⁻¹	1.01e+06 M⁻¹ s⁻¹

— PMC12072002, “Site-Directed Mutagenesis Increased the Catalytic Activity and Stability of Oenococcus oeni β-Glucosidase: Characterization of Enzymatic Properties and Exploration of Mechanisms” (International Journal of Molecular Sciences, 2025)
